Source: EP4442707

Columns and labels:
[1] = target: T1, sheep serum albumin (Ovis aries, UniProt P14639); test: SPR pH 7.4
T1 chain: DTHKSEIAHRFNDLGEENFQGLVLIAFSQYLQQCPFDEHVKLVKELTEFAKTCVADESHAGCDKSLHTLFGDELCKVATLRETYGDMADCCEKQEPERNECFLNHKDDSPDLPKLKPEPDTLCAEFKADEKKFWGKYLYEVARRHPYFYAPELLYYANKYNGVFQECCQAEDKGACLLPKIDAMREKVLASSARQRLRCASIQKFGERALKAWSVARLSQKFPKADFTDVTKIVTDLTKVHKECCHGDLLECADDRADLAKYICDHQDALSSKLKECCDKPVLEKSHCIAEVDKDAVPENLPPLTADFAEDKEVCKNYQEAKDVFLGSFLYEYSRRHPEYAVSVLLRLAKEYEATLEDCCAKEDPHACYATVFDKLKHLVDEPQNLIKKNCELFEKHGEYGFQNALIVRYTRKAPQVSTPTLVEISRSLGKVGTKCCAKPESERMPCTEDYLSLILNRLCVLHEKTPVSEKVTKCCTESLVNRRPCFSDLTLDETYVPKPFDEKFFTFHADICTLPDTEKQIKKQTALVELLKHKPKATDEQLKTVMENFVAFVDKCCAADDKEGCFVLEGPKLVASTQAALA

[2] = target: T2, dog serum albumin (Canis lupus familiaris, UniProt P49822); test: SPR pH 7.4
T2 chain: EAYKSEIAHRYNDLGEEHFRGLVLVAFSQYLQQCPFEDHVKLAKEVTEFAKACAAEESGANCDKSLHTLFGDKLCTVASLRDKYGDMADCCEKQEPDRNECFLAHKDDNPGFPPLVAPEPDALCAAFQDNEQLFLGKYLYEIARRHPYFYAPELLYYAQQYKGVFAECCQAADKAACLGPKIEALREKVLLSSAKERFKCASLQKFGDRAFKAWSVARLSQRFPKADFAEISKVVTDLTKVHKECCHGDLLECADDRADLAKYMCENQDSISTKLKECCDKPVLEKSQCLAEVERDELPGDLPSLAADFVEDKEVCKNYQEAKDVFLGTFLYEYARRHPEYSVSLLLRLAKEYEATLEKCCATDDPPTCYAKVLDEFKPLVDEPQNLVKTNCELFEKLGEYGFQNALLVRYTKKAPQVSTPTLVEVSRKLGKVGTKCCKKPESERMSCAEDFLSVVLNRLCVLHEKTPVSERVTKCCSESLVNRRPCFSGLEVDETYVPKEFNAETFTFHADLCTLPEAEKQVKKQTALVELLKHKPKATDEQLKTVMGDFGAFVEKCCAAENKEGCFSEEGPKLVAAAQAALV

[3] = target: mouse serum albumin (Mus musculus, UniProt P07724); test: SPR pH 7.4
[4] = target: T3, human serum albumin (Homo sapiens, UniProt P02768); test: SPR pH 7.4
[5] = target: T4, rat serum albumin (Rattus norvegicus, UniProt P02770); test: SPR pH 7.4
T4 chain: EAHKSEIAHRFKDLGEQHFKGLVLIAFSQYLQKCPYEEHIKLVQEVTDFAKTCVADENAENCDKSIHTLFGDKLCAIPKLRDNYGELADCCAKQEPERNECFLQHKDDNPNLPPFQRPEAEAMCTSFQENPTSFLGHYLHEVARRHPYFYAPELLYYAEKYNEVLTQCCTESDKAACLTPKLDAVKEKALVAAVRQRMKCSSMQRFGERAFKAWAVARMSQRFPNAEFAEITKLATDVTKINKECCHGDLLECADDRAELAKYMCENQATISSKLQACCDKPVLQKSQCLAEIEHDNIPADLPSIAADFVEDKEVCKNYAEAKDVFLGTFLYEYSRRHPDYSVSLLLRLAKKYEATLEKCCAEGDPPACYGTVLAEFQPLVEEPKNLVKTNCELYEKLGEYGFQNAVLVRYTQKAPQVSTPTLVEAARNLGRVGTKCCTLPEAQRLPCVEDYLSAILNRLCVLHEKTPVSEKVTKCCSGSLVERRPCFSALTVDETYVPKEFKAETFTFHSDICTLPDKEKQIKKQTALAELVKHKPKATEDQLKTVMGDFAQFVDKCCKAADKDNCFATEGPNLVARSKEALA

[6] = target: T5, rabbit serum albumin (Oryctolagus cuniculus, UniProt P49065); test: SPR pH 7.4
T5 chain: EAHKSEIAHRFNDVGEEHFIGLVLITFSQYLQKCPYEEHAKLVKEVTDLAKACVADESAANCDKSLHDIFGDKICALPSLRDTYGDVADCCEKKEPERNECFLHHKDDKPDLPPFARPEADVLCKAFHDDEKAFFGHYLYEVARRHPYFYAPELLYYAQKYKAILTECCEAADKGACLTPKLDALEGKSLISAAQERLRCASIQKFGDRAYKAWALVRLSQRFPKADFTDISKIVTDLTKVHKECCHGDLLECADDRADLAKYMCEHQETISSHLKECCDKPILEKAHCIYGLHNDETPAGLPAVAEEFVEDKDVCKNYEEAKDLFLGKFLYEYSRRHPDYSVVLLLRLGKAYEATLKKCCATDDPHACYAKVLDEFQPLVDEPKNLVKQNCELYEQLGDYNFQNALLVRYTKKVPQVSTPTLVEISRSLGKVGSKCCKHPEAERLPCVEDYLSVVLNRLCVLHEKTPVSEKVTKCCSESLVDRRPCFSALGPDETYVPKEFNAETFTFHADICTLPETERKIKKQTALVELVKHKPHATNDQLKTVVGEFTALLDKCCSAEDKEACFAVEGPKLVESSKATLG

[7] = target: T6, pig serum albumin (Sus scrofa, UniProt P08835); test: SPR pH 7.4
T6 chain: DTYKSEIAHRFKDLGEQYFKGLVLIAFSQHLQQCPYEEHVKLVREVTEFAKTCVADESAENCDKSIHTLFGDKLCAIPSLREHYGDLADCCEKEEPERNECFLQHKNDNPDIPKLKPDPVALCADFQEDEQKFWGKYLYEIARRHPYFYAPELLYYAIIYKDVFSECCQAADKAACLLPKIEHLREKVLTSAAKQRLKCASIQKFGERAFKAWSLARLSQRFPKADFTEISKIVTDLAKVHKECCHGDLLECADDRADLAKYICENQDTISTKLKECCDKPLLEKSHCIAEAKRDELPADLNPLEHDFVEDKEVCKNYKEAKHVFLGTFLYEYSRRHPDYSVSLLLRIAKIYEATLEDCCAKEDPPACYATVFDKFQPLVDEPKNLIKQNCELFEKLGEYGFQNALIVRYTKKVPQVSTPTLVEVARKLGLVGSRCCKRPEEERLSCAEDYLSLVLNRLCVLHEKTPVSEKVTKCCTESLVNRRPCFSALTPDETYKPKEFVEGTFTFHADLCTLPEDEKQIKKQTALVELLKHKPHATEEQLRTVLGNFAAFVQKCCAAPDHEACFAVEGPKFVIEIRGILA

[8] = target: T7, cynomolgus serum albumin (Macaca fascicularis, UniProt A2V9Z4); test: SPR pH 7.4
T7 chain: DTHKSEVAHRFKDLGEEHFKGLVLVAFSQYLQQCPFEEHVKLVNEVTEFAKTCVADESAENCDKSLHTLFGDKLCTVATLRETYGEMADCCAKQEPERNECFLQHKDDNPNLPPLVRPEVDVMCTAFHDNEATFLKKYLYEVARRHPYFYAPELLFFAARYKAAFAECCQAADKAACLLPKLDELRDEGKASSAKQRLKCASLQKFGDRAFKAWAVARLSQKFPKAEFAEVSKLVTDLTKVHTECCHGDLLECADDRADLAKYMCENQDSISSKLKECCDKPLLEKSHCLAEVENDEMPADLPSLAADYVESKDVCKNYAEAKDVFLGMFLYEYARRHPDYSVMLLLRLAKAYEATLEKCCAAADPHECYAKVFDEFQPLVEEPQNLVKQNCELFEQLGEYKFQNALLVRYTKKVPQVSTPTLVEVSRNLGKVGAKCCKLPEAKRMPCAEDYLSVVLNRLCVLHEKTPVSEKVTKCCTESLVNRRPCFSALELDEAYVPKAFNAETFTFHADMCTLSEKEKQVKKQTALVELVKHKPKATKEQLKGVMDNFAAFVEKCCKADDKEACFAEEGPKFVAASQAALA

[9] = target: T3, human serum albumin; test: SPR pH 7.4; remark: listed apart in the source
[10] = target: bovine serum albumin (Bos taurus, UniProt P02769); test: SPR pH 7.4
[11] = target: T3, human serum albumin; test: SPR pH 6.0
[12] = target: T3, human serum albumin; test: SPR pH 5.0

- binding result [1]: no binding
- Kd [2]: 1.2 nM
- Kd [3]: 0.27 nM
- koff [4]: 0.0002 s⁻¹
- Kd [5]: 0.067 nM
- binding result [6]: no binding
- Kd [7]: 45 nM
- Kd [8]: 0.45 nM
- Kd [9]: 0.44 nM
- binding result [10]: no binding
- koff [11]: 0.00032 s⁻¹
- koff [12]: 0.00051 s⁻¹
B1: SEQ ID NO:19 serum albumin binder (T023500029) (antibody, V domains shown)
VH: EVQLVESGGGVVQPGDSLRLSCAASGGTFSTYVMGWFRQAPGKEREFVSAISQNSIHTYYANSVKGRFTISRDNSKNTVYLQLNSLRPEDTALYYCAASRFTSWYTADYEYDYWGQGTLVTVSS
